Results published in the supplement of paper PMC10065799, “High-throughput profiling of sequence recognition by tyrosine kinases and SH2 domains using bacterial peptide display” (eLife, 2023).

Assays:
AncSZ = test: phosphorylation enrichment, bacterial display (enrichment ratio); higher = better substrate or ligand; peptides without Tyr show the background
EPHB1 = EPHB1 (UniProt P54762); test: as above
EPHB2 = EPHB2 (UniProt P29323); test: as above
FGFR1 = FGFR1 (UniProt P11362); test: as above
FGFR3 = FGFR3 (UniProt P22607); test: as above
Sequence of FGFR3 (P22607 whole entry, looked up): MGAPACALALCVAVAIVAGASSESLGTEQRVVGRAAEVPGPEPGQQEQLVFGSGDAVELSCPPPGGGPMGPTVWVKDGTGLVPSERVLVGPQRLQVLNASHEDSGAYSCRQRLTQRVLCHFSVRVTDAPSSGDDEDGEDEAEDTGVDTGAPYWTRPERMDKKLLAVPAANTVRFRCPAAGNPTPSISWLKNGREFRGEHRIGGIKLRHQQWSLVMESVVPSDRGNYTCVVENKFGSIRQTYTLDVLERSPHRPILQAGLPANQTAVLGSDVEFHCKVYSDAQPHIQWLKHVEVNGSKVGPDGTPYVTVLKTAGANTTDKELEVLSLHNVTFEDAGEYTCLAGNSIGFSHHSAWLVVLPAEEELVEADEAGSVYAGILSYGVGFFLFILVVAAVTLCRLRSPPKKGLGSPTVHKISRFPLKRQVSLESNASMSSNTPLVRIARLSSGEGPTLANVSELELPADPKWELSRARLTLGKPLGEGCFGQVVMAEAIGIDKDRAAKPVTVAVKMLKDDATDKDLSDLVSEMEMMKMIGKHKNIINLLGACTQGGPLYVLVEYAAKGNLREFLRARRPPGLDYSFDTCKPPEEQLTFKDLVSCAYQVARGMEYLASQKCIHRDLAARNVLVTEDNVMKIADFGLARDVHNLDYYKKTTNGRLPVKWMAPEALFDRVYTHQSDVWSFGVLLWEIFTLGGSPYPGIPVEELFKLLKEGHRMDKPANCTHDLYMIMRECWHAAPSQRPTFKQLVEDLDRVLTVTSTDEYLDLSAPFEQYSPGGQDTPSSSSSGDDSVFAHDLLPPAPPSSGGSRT

Fer (mouse) = test: as above
Fes = Fes (UniProt P07332); test: as above
Sequence of Fes (P07332 whole entry, looked up): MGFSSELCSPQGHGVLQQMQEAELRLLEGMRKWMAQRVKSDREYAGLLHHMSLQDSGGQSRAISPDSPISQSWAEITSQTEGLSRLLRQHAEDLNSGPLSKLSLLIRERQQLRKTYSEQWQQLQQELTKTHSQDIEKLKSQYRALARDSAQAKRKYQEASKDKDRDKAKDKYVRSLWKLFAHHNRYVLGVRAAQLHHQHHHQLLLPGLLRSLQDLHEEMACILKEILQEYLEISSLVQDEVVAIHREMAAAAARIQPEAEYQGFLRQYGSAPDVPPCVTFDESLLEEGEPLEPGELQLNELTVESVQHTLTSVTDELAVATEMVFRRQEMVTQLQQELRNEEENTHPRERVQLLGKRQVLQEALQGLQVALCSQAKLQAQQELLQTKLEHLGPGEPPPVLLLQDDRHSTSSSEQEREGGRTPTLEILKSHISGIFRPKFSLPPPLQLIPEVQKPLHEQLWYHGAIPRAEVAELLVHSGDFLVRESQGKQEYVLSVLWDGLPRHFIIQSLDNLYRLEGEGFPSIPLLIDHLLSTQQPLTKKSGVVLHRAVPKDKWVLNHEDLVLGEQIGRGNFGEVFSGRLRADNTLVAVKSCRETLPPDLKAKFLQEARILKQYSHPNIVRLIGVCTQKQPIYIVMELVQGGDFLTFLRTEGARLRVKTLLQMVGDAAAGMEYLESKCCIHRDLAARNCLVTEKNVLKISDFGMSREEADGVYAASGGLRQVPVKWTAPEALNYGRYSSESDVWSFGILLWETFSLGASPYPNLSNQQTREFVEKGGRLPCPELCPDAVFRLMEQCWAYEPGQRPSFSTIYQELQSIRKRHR

Fyn = Fyn (UniProt P06241); test: as above
Sequence of Fyn (P06241 whole entry, looked up): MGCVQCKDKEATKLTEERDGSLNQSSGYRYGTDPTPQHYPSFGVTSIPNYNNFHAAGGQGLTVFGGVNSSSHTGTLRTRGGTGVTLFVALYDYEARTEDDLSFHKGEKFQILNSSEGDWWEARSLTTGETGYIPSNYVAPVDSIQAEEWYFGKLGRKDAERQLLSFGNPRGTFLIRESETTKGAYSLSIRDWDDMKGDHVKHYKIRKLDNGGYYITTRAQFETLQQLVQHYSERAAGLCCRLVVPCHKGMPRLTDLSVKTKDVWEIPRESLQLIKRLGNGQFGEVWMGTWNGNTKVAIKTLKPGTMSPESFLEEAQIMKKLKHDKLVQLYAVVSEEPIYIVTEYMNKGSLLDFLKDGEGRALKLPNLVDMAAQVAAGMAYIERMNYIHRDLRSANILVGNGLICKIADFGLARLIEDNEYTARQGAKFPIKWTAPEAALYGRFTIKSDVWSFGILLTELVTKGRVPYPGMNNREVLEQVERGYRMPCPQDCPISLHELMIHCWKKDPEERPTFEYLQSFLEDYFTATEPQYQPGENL

Hck = Hck (UniProt P08631); test: as above
Sequence of Hck (P08631 whole entry, looked up): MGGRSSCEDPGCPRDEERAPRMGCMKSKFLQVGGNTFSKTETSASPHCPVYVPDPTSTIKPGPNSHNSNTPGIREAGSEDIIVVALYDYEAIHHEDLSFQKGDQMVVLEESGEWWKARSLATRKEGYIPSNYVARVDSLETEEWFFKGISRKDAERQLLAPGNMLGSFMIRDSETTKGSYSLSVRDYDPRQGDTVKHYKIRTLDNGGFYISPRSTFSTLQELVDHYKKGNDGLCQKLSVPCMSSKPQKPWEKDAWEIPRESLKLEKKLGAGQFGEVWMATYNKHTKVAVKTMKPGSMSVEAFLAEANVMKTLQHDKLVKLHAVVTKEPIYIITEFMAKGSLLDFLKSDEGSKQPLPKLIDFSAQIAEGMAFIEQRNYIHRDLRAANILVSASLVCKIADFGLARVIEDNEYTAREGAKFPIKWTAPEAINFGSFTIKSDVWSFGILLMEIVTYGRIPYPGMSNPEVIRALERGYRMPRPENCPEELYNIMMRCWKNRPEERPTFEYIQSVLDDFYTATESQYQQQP

Jak2 = Jak2 (UniProt O60674); test: as above
Sequence of Jak2 (O60674 whole entry, looked up): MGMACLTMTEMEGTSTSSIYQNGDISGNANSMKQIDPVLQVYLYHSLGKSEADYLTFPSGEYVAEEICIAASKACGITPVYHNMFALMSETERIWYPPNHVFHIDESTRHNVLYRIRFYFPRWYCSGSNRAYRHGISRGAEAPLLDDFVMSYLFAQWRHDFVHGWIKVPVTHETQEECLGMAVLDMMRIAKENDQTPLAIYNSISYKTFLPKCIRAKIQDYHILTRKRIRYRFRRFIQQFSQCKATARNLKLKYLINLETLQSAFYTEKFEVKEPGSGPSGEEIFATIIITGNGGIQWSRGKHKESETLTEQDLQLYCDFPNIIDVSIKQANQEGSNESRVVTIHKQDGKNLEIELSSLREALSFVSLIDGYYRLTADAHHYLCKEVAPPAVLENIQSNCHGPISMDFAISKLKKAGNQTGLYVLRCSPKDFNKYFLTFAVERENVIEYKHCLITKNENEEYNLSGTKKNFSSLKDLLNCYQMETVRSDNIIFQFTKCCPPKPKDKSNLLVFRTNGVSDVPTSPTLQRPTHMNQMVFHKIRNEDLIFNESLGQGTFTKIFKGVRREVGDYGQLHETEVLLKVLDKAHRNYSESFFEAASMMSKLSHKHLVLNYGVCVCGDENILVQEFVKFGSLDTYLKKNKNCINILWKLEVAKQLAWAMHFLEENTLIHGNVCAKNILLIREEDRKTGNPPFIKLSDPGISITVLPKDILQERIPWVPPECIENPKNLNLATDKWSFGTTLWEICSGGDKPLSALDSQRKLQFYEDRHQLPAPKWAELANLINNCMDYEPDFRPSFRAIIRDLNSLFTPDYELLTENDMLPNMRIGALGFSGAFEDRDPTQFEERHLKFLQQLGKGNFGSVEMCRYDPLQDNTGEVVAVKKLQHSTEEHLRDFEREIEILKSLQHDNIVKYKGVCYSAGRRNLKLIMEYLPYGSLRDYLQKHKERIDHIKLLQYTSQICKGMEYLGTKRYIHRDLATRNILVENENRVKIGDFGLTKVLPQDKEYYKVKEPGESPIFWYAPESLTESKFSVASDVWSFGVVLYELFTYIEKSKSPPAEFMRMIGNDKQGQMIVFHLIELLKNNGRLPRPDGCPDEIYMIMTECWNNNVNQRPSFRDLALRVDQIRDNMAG

MERTK = MERTK (UniProt Q12866); test: as above
Sequence of MERTK (Q12866 whole entry, looked up): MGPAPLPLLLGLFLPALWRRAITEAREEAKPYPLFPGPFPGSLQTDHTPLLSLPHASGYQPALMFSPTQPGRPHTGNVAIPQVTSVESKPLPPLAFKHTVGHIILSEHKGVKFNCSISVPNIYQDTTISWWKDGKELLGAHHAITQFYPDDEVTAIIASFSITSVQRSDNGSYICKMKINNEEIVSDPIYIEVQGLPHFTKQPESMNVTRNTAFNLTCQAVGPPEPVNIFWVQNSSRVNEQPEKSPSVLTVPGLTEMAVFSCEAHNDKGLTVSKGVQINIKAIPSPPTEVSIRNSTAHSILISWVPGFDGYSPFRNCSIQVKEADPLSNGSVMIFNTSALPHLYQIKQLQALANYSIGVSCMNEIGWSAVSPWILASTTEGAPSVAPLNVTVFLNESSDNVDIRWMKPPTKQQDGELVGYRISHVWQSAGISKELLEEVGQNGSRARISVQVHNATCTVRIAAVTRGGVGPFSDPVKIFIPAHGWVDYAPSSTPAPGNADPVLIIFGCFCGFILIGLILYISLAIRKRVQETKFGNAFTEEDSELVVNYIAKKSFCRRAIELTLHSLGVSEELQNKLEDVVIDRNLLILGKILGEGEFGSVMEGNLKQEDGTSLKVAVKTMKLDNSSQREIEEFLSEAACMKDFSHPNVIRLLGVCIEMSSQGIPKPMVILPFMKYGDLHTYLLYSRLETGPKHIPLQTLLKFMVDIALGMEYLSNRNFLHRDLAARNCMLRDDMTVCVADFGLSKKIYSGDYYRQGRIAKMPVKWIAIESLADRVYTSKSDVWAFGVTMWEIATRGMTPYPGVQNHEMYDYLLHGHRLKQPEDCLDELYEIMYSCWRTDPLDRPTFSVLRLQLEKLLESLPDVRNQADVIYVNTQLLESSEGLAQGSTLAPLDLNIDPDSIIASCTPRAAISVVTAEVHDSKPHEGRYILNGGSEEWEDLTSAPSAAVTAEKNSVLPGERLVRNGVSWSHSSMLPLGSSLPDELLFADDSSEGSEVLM

c-Abl (mouse) = test: as above
c-Src = test: as above
Grb2 SH2 = Grb2 SH2 (UniProt P62993); test: SH2 binding enrichment of the phosphorylated peptide, bacterial display (enrichment ratio); higher = better substrate or ligand; peptides without Tyr show the background
SHP2-C SH2 = test: as above
c-Src SH2 = test: as above
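For SH2 binding enrichment of the phosphorylated peptide, bacterial display in this document: peptide library displayed on the E. coli surface as eCPX fusions, selected cells deep-sequenced, score is each peptide's frequency after selection divided by its frequency in the input.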
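For phosphorylation enrichment, bacterial display in this document: 11-residue human phosphosite peptides and single-mutation variants displayed on the E. coli surface, counted by deep sequencing, each peptide's frequency after selection divided by its frequency in the unselected input library; frequency after pTyr selection over input frequency; kinase dosed for 20-30% of maximal phosphorylation in three min.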

SH2 binding enrichment (Grb2 SH2) | SH2 binding enrichment (SHP2-C SH2) | SH2 binding enrichment (c-Src SH2) | Sequence | phosphorylation enrichment (AncSZ) | phosphorylation enrichment (EPHB1) | phosphorylation enrichment (EPHB2) | phosphorylation enrichment (FGFR1) | phosphorylation enrichment (FGFR3) | phosphorylation enrichment (Fer (mouse)) | phosphorylation enrichment (Fes) | phosphorylation enrichment (Fyn) | phosphorylation enrichment (Hck) | phosphorylation enrichment (Jak2) | phosphorylation enrichment (MERTK) | phosphorylation enrichment (c-Abl (mouse)) | phosphorylation enrichment (c-Src)
1.19 | 1.37 | 1.29 | RLLRGHDQYAY [HLA-B_Y137] | 0.672 | 0.673 | 0.763 | 0.69 | 0.851 | 0.467 | 0.808 | 0.57 | 0.6 | 0.56 | 0.473 | 0.496 | 0.456
1.11 | 0.498 | 0.627 | RRNEEYCLLAS [ITK_Y198_D202A] | 0.976 | 1.55 | 0.72 | 0.888 | 0.977 | 0.594 | 0.924 | 0.536 | 0.84 | 0.741 | 0.703 | 0.522 | 0.57
0.791 | 0.581 | 0.432 | ILDEAYVMAIV [EGFR_Y764_S768I] | 1.5 | 0.62 | 0.686 | 0.963 | 1.02 | 0.968 | 1.35 | 0.662 | 0.531 | 1.39 | 0.454 | 0.84 | 0.829
0.836 | 0.695 | 0.485 | TGQERYRAITS [RAB11B_Y73_A68T] | 0.516 | 0.322 | 0.291 | 0.423 | 0.392 | 0.346 | 0.588 | 0.451 | 0.519 | 0.369 | 0.337 | 0.368 | 0.344
0.752 | 0.592 | 0.68 | PVKSEYPSIKL [NPC2_Y119] | 0.456 | 0.358 | 0.562 | 0.579 | 0.623 | 0.433 | 0.822 | 0.509 | 0.515 | 0.557 | 0.465 | 0.654 | 0.364
0.846 | 0.811 | 0.92 | SPPPAYTPMSG [ERBB4_Y1056] | 0.522 | 0.438 | 0.429 | 0.41 | 0.457 | 0.379 | 0.503 | 0.483 | 0.45 | 0.503 | 0.529 | 0.459 | 0.388
0.902 | 0.767 | 0.658 | NDQPDYDSVAS [GIT2_Y392] | 1.3 | 0.63 | 0.671 | 0.522 | 0.76 | 0.558 | 1.19 | 0.546 | 0.735 | 1.23 | 0.511 | 0.849 | 0.992
0.926 | 0.496 | 0.559 | AAVDEYLEFRR [FAM221A_Y17_YF] | 1.14 | 0.395 | 0.517 | 0.601 | 0.531 | 0.421 | 0.963 | 0.949 | 1.47 | 0.756 | 0.409 | 0.722 | 1.28
0.967 | 0.561 | 0.372 | RRIHSYRGRLW [VHL_Y112_H115R] | 0.956 | 0.865 | 0.641 | 0.733 | 0.811 | 0.637 | 0.771 | 0.547 | 0.754 | 0.68 | 0.538 | 0.836 | 0.7
0.752 | 0.761 | 0.427 | NHYKIYNPCAE [PTEN_Y68_L70P] | 0.714 | 0.437 | 0.48 | 0.485 | 0.573 | 0.382 | 0.834 | 0.508 | 0.55 | 0.569 | 0.427 | 0.607 | 0.424
0.691 | 0.676 | 0.935 | PEVSGYCHYAD [TG_Y234_C237Y] | 0.864 | 0.831 | 0.616 | 0.427 | 0.714 | 1.1 | 1.1 | 0.506 | 0.658 | 1.04 | 0.425 | 1.2 | 0.454
0.837 | 0.595 | 0.929 | MSRNLYSGDCF [DDR2_Y736_Y740C_YF] | 1.01 | 2.02 | 1.97 | 0.793 | 0.968 | 0.911 | 1 | 1.71 | 2.12 | 0.903 | 5.87 | 0.739 | 1.93
0.815 | 0.881 | 0.517 | CGPLLYGLVHQ [PRKCG_Y122_S119P] | 0.884 | 2.72 | 4.12 | 0.593 | 0.723 | 8.22 | 1.16 | 3.72 | 4.88 | 1.06 | 4.98 | 0.73 | 4.08
0.727 | 1.04 | 0.46 | KEKLCYVALDF [ACTA1_Y220] | 1.26 | 0.737 | 0.676 | 2.4 | 2.15 | 1.29 | 1.17 | 1.03 | 1.27 | 2.68 | 4.72 | 0.877 | 1.81
0.868 | 1.13 | 9.64 | YETVKYFNNER [ABCB7_Y345] | 0.881 | 0.792 | 0.611 | 1.95 | 1.32 | 9.57 | 0.869 | 1.37 | 1.83 | 0.683 | 0.844 | 0.64 | 1.14
0.871 | 0.885 | 0.513 | WIPIQCPIISE [NOG_Y222_Y222C] | 1.31 | 0.818 | 0.591 | 0.54 | 1.04 | 0.54 | 1.41 | 0.551 | 0.563 | 1.12 | 0.373 | 0.836 | 0.433
0.713 | 0.574 | 0.592 | ENRKYYKDLKE [PURA_Y156_M157K] | 0.55 | 0.34 | 0.298 | 0.359 | 0.457 | 0.318 | 0.766 | 0.359 | 0.295 | 0.772 | 0.34 | 0.549 | 0.352

SH2 binding enrichment (Grb2 SH2) | SH2 binding enrichment (SHP2-C SH2) | SH2 binding enrichment (c-Src SH2) | Sequence | phosphorylation enrichment (AncSZ) | phosphorylation enrichment (EPHB1) | phosphorylation enrichment (EPHB2) | phosphorylation enrichment (FGFR1) | phosphorylation enrichment (FGFR3) | phosphorylation enrichment (Fer (mouse)) | phosphorylation enrichment (Fes) | phosphorylation enrichment (Fyn) | phosphorylation enrichment (Hck) | phosphorylation enrichment (Jak2) | phosphorylation enrichment (MERTK) | phosphorylation enrichment (c-Abl (mouse)) | phosphorylation enrichment (c-Src)
1.61 | 1.12 | 0.997 | PGIRMYQVQFN [LRFN1_Y454_YF] | 0.619 | 0.467 | 0.505 | 0.31 | 0.531 | 0.423 | 0.863 | 0.504 | 0.384 | 0.789 | 0.349 | 0.636 | 0.583
0.928 | 0.686 | 0.628 | AVAFVYFKSIG [ADGRL4_Y301_YF] | 1.38 | 0.911 | 0.797 | 0.798 | 1.01 | 0.728 | 1.6 | 0.643 | 0.626 | 1.15 | 0.471 | 0.938 | 0.426
0.851 | 0.825 | 0.447 | TDKLFYIFTSG [SLC27A4_Y243_YF] | 1.6 | 0.732 | 0.701 | 0.686 | 0.886 | 0.472 | 1.44 | 0.506 | 0.524 | 1.41 | 0.538 | 0.766 | 0.469
0.749 | 0.514 | 0.528 | ANSSFHSTRSA [NUMA1_Y1836_Y1836H] | 0.597 | 0.436 | 0.51 | 0.551 | 0.599 | 0.425 | 1.04 | 0.555 | 0.551 | 0.552 | 0.496 | 0.616 | 0.602
0.96 | 0.571 | 0.54 | LLSISYVGCSL [ADGRD1_Y571_S567L] | 1.48 | 0.888 | 0.823 | 1.1 | 1.43 | 1.01 | 2.03 | 0.98 | 0.824 | 1.77 | 0.761 | 1.45 | 0.69
0.7 | 0.549 | 0.414 | CSEEMYRLMLQ [RET_Y981] | 1.4 | 0.695 | 0.664 | 0.921 | 0.853 | 0.619 | 1.41 | 0.606 | 0.666 | 1.5 | 0.573 | 0.947 | 0.643
1.24 | 1.05 | 1.07 | SGIYQYIIAKF [FOXL2_Y83] | 1.15 | 10.6 | 5.98 | 6.4 | 4.7 | 9.49 | 1.72 | 4.03 | 6.52 | 0.852 | 8.1 | 6.06 | 3.69
24.6 | 2.57 | 4.78 | YLNSSYINIST [IL23R_Y178_T175N] | 0.875 | 0.525 | 0.453 | 2.69 | 2.14 | 0.439 | 0.799 | 0.475 | 0.591 | 1.23 | 0.606 | 0.574 | 0.436
1.14 | 0.919 | 0.498 | VNKIFYPDFIV [LIG3_Y768_YF] | 1 | 0.465 | 0.928 | 0.49 | 0.584 | 0.5 | 1.08 | 0.464 | 0.529 | 0.811 | 0.518 | 0.612 | 0.432
0.717 | 0.455 | 0.45 | RDEHGYISRCF [HSPB1_Y133_Q128R] | 1.49 | 0.789 | 1.15 | 0.722 | 1.17 | 0.734 | 1.65 | 0.825 | 0.755 | 1.53 | 0.565 | 1.23 | 0.675
0.89 | 0.726 | 1.62 | KILGRYYETSS [PAX2_Y72_G76S] | 0.568 | 0.428 | 0.502 | 0.435 | 0.541 | 0.447 | 0.65 | 0.424 | 0.344 | 0.595 | 0.453 | 0.613 | 0.51
0.885 | 0.659 | 0.487 | IGHHAYGDQFR [IDH1_Y135_R132H_YF] | 0.63 | 0.444 | 0.417 | 0.414 | 0.477 | 0.371 | 0.618 | 0.346 | 0.381 | 0.503 | 0.397 | 0.516 | 0.373
0.78 | 0.614 | 0.457 | PKEEPYQMQEK [SLC5A3_Y565] | 2.33 | 0.964 | 1.26 | 1 | 1.21 | 0.687 | 1.92 | 0.784 | 0.566 | 1.17 | 0.691 | 0.943 | 0.923
0.926 | 0.743 | 0.488 | LEFNEYFRDLN [HPRT1_Y198_D194E_YF] | 2.14 | 1.21 | 1.15 | 1.09 | 1.95 | 0.769 | 1.66 | 0.992 | 0.828 | 1.25 | 0.795 | 0.805 | 0.809
0.855 | 0.973 | 0.461 | PLFRKYWPNHI [GREB1L_Y1560_YF] | 1.17 | 0.589 | 0.498 | 0.505 | 0.565 | 0.482 | 0.994 | 0.698 | 0.727 | 0.695 | 0.633 | 0.557 | 0.491
0.956 | 0.567 | 0.536 | FEREQYADRAR [RBM4_Y355_YF] | 0.626 | 0.414 | 0.446 | 0.426 | 0.587 | 0.394 | 0.727 | 0.484 | 0.426 | 0.515 | 0.331 | 0.464 | 0.396
